B1: V3-1m (antibody, mouse IgG2a, V domains shown)
VH: EVQLVESGGGLVQPGGSLRLSCAASGFTISSNSIHWVRQAPGKGLEWVAWITPSDGNTDYADSVKGRFTISADTSKNTAYLQMNSLRAEDTAVYYCARRVCYNRLGVCAGGMDYWGQGTLVTVSS
VL: DIQMTQSPSSLSASVGDRVTITCRASQDVSTAVAWYQQKPGKAPKLLIYSASFLYSGVPSRFSGSGSGTDFTLTISSLQPEDFATYYCQQSRITPPTFGQGTKVEIKR
notes: also called mV3-1
B2: V3-1h (antibody, human IgG1, V domains shown)
VH: B1 VH
VL: B1 VL
B3: V3(5) (antibody, human IgG1, kappa)
heavy chain: EVQLVESGGGLVQPGGSLRLSCAASGFTISSSSIHWVRQAPGKGLEWVAWVLPSVGFTDYADSVKGRFTISADTSKNTAYLQMNSLRAEDTAVYYCARRVCYNRLGVCAGGMDYWGQGTLVTVSSASTKGPSVFPLAPSSKSTSGGTAALGCLVKDYFPEPVTVSWNSGALTSGVHTFPAVLQSSGLYSLSSVVTVPSSSLGTQTYICNVNHKPSNTKVDKKVEPKSCDKTHTCPPCPAPELLGGPSVFLFPPKPKDTLMISRTPEVTCVVVDVSHEDPEVKFNWYVDGVEVHNAKTKPREEQYNATYRVVSVLTVLHQDWLNGKEYKCKVSNAALPAPIAATISKAKGQPREPQVYTLPPSREEMTKNQVSLTCLVKGFYPSDIAVEWESNGQPENNYKTTPPVLDSDGSFFLYSKLTVDKSRWQQGNVFSCSVMHEALHNHYTQKSLSLSPG
light chain: DIQMTQSPSSLSASVGDRVTITCRASQDVSTAVAWYQQKPGKAPKLLIYSASFLYSGVPSRFSGSGSGTDFTLTISSLQPEDFATYYCQQSQISPPTFGQGTKVEIKRTVAAPSVFIFPPSDEQLKSGTASVVCLLNNFYPREAKVQWKVDNALQSGNSQESVTEQDSKDSTYSLSSTLTLSKADYEKHKVYACEVTHQGLSSPVTKSFNRGEC
notes: also called V3-46s S298A/K326A/E333A/K334A
B4: V3-46s IgG (antibody)
heavy: not shown
light: B3 light chain
notes: also called HV3-46S; HV3-46S-Bulk
B5: Hu9.1RF IgG1 (antibody)
heavy: not shown
light: DIQMTQSPSSLSASVGDRVTITCKSSQSLLYSSNQNNYLAWYQQKPGKAPKLLIYWASTRESGVPSRFSGSGSGTDFTLTISSLQPEDFATYYCQQYYTYPYTFGQGTKVEIKRTVAAPSVFIFPPSDEQLKSGTASVVCLLNNFYPREAKVQWKVDNALQSGNSQESVTEQDSKDSTYSLSSTLTLSKADYEKHKVYACEVTHQGLSSPVTKSFNRGEC
notes: Humanized IgG1 with normal (fucosylated) glycans; also called WT; WT(9.1RF)
B6: afucosylated Hu9.1RF IgG1 (antibody)
heavy: not shown
light: B5 light
modifications: N-linked Fc carbohydrate lacks fucose (made in a cell line lacking fucosyltransferase; 100% afucosylated by paragraph 557)
notes: also called AF Hu9.1RF IgG1; Hu9.1RF IgG1 AF

Legend:
[1] = molecular target: T1, human BR3 on the cell surface (BJAB cells; primary human B cells) (human, UniProt Q96RJ3 1-184); test: BJAB binding assay
T1 construct: whole, on cells; also called BAFF-R; cell surface BR3

[2] = molecular target: T2, mouse FcγRII extracellular domain, His-tagged GST fusion (mouse, UniProt P08101 30-210); test: Fcγ receptor ELISA; bar = fold change in binding relative to Herceptin (EC50 Herceptin/EC50 sample), log axis 0.1-100
T2 construct: extracellular domain; also called Mouse II; not shown: His tag and GST
T2 sequence (looked up): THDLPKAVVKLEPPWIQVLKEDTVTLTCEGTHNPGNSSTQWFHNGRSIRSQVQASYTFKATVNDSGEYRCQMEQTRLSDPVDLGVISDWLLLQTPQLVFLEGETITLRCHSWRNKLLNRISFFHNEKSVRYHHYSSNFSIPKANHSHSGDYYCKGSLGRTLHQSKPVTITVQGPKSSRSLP

[3] = molecular target: T3, human FcγRIIIa (F158) extracellular domain, His-tagged GST fusion (human, UniProt P08637 17-208); test: as above
T3 construct: extracellular domain; also called hFcgRIII (F158); FcγRIII (F158 allele); not shown: C-terminal Gly/His6/GST tag

[4] = molecular target: T4, human FcγRI extracellular domain, His-tagged GST fusion (human, UniProt P12314 16-292); test: as above
T4 construct: extracellular domain; also called hFcgRI; FcγRIA; not shown: C-terminal Gly/His6/GST tag

[5] = molecular target: T5, mouse FcγRIII extracellular domain, His-tagged GST fusion (mouse, UniProt P08508 31-215); test: as above
T5 construct: extracellular domain; also called Mouse III; not shown: His tag and GST
T5 sequence (looked up): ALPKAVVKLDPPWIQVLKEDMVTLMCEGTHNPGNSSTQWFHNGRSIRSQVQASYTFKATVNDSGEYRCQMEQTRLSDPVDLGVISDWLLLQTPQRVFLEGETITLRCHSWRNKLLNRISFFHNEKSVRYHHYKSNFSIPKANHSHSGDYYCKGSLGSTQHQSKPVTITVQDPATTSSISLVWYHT

[6] = molecular target: T6, mouse FcγRI extracellular domain, His-tagged GST fusion (mouse, UniProt P26151 25-297); test: as above
T6 construct: extracellular domain; also called Mouse I; mFcγRI; not shown: His tag and GST
T6 sequence (looked up): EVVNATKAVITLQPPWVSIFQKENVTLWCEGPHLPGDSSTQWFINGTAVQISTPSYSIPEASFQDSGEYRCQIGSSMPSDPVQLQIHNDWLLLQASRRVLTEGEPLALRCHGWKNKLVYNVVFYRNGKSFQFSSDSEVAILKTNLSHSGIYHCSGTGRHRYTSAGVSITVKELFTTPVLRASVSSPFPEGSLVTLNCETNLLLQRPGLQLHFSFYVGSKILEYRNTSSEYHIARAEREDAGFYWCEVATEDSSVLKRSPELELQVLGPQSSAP

[7] = molecular target: T4, human FcγRI extracellular domain, …; test: ELISA, captured FcγR-GST, monomeric IgG
[8] = molecular target: T3, human FcγRIIIa (F158) extracellular …; test: ELISA, captured FcγR-GST, multimeric IgG
[9] = molecular target: T7, human FcγRIIa extracellular domain, His-tagged GST fusion (human, UniProt P12318 34-217); test: ELISA, captured FcγR-GST, multimeric IgG
T7 construct: extracellular domain; also called hFcgRIIa; CD32A; not shown: C-terminal Gly/His6/GST tag
T7 sequence (looked up): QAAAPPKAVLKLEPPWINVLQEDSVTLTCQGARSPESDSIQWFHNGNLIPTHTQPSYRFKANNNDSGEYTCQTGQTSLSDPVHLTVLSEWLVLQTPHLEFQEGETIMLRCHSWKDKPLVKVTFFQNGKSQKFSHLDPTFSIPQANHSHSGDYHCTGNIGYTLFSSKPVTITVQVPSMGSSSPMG

[10] = molecular target: T8, human FcγRIIb extracellular domain, His-tagged GST fusion (human, UniProt P31994 43-217); test: ELISA, captured FcγR-GST, multimeric IgG
T8 construct: extracellular domain; also called hFcgRIIb; CD32B; not shown: C-terminal Gly/His6/GST tag
T8 sequence (looked up): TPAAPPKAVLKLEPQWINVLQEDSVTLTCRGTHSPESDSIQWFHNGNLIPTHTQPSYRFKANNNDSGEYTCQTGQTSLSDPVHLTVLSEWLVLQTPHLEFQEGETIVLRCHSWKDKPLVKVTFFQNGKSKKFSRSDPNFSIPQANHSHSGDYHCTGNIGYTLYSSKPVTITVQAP

[11] = molecular target: T9, human FcγRIIIa (V158) extracellular domain, His-tagged GST fusion (human, UniProt P08637 17-208); test: ELISA, captured FcγR-GST, multimeric IgG
T9 construct: extracellular domain; also called hFcgRIII (V158); FcγRIII (V158 allele); not shown: C-terminal Gly/His6/GST tag

[12] = molecular target: T7, human FcγRIIa extracellular domain, …; test: ELISA, FcγR-His-GST captured by anti-GST, complexed IgG
[13] = molecular target: T8, human FcγRIIb extracellular domain, …; test: as above
[14] = molecular target: T1, human BR3 on the cell surface (BJAB …); test: direct binding to BJAB cells, anti-human IgG Fc-HRP
[15] = molecular target: T10, human BR3 extracellular domain (human, UniProt Q96RJ3 1-78); test: BIAcore, BR3 ECD on chip, IgG in solution, bivalent analyte model
T10 construct: extracellular domain; also called BR3 ECD; Br3 ECD WT

[16] = molecular target: T1, human BR3 on the cell surface (BJAB …); test: competition with 25 nM FLAG-BAFF on BJAB cells
[17] = molecular target: T2, mouse FcγRII extracellular domain, …; test: ELISA, captured FcγR-GST;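 further: antibody variants applied as dilution series to receptor wells, with retained antibody read out via an HRP-linked goat F(ab′)2 fragment recognizing human Fab′2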
[18] = molecular target: T4, human FcγRI extracellular domain, …; test: ELISA, captured FcγR-GST;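 further: antibody variants applied as dilution series to receptor wells, with retained antibody read out via an HRP-linked goat F(ab′)2 fragment recognizing human Fab′2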
[19] = molecular target: T7, human FcγRIIa extracellular domain, …; test: ELISA, captured FcγR-GST;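 further: antibody variants applied as dilution series to receptor wells, with retained antibody read out via an HRP-linked goat F(ab′)2 fragment recognizing human Fab′2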
[20] = molecular target: T5, mouse FcγRIII extracellular domain, …; test: ELISA, captured FcγR-GST;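 further: antibody variants applied as dilution series to receptor wells, with retained antibody read out via an HRP-linked goat F(ab′)2 fragment recognizing human Fab′2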
[21] = molecular target: T8, human FcγRIIb extracellular domain, …; test: ELISA, captured FcγR-GST
[22] = molecular target: T6, mouse FcγRI extracellular domain, …; test: ELISA, captured FcγR-GST
[23] = molecular target: T10, human BR3 extracellular domain; test: BIAcore, BR3 ECD on chip, IgG in solution, 1:1 Langmuir model
[24] = molecular target: T10, human BR3 extracellular domain; test: BIAcore, IgG on chip, BR3 ECD in solution, 1:1 Langmuir model
[25] = molecular target: T4, human FcγRI extracellular domain, …; test: ELISA, FcγR-His-GST captured by anti-GST
[26] = molecular target: human FcγRIII (CD16) on NK cells (human, UniProt P08637 17-254); test: cell-based or functional assay

Binder | binding result [1] | binding result [2] | binding result [5] | binding result [6] | EC50 [14] [nM] | Kd [15] [nM] | koff [15] [s⁻¹] | kon [15] [M⁻¹ s⁻¹] | IC50 [16] [nM] | Kd [23] [nM] | koff [23] [s⁻¹] | kon [23] [M⁻¹ s⁻¹] | Kd [24] [nM] | koff [24] [s⁻¹] | kon [24] [M⁻¹ s⁻¹] | also measured
B1 | binds |  |  |  |  |  |  |  |  |  |  |  |  |  |  | 
B2 | binds |  |  |  |  |  |  |  |  |  |  |  |  |  |  | 
B3 |  | binds | binds | binds |  |  |  |  |  |  |  |  |  |  |  | binding result [3]: binds; binding result [4]: binds
B4 |  | binds | binds | binds |  |  |  |  |  |  |  |  |  |  |  | EC50 [7]: 0.00158 µg/mL; EC50 [8]: 1.52 µg/mL; EC50 [9]: 0.3 µg/mL; EC50 [10]: 1.02 µg/mL; EC50 [11]: 0.28 µg/mL
B5 |  |  |  |  | 0.92 | 0.52 | 0.000339 | 658000 | 8.8 | 0.03 | 5.21e-05 | 1.99e+06 | 0.25 | 0.000253 | 995000 | binding relative to 9.1-RF [12]: 1; binding relative to 9.1-RF [13]: 1; fold improvement in binding vs Herceptin (EC50herceptin/EC50sample) [17]: 0.7 fold; fold improvement in binding vs Herceptin (EC50herceptin/EC50sample) [18]: 1 fold; fold improvement in binding vs Herceptin (EC50herceptin/EC50sample) [19]: 2.3 fold; fold improvement in binding vs Herceptin (EC50herceptin/EC50sample) [20]: 0.8 fold; fold improvement in binding vs Herceptin (EC50herceptin/EC50sample) [21]: 0.7 fold; fold improvement in binding vs Herceptin (EC50herceptin/EC50sample) [22]: 1.2 fold; binding relative to 9.1-RF [25]: 1
B6 |  |  |  |  | 0.49 | 0.28 | 0.000149 | 532000 | 3.6 | 0.04 | 5.41e-05 | 1.49e+06 | 0.23 | 0.000199 | 852000 | ADCC EC50 on BJAB cells with NK cells, improvement over 2% afucosylated Hu9.1RF IgG1 [26]: > 6 fold; ADCC percent cytotoxicity on BJAB cells with NK cells, increase over 2% afucosylated Hu9.1RF IgG1 [26]: > 3 fold
